Here are results for 1 molecule from US20250092426, “CAS ENDONUCLEASES AND RELATED METHODS” (Flagship Pioneering Innovations VII, LLC, published 2025).

The series has as its target T1, CasEnd-33 (synthetic construct).
T1 chain: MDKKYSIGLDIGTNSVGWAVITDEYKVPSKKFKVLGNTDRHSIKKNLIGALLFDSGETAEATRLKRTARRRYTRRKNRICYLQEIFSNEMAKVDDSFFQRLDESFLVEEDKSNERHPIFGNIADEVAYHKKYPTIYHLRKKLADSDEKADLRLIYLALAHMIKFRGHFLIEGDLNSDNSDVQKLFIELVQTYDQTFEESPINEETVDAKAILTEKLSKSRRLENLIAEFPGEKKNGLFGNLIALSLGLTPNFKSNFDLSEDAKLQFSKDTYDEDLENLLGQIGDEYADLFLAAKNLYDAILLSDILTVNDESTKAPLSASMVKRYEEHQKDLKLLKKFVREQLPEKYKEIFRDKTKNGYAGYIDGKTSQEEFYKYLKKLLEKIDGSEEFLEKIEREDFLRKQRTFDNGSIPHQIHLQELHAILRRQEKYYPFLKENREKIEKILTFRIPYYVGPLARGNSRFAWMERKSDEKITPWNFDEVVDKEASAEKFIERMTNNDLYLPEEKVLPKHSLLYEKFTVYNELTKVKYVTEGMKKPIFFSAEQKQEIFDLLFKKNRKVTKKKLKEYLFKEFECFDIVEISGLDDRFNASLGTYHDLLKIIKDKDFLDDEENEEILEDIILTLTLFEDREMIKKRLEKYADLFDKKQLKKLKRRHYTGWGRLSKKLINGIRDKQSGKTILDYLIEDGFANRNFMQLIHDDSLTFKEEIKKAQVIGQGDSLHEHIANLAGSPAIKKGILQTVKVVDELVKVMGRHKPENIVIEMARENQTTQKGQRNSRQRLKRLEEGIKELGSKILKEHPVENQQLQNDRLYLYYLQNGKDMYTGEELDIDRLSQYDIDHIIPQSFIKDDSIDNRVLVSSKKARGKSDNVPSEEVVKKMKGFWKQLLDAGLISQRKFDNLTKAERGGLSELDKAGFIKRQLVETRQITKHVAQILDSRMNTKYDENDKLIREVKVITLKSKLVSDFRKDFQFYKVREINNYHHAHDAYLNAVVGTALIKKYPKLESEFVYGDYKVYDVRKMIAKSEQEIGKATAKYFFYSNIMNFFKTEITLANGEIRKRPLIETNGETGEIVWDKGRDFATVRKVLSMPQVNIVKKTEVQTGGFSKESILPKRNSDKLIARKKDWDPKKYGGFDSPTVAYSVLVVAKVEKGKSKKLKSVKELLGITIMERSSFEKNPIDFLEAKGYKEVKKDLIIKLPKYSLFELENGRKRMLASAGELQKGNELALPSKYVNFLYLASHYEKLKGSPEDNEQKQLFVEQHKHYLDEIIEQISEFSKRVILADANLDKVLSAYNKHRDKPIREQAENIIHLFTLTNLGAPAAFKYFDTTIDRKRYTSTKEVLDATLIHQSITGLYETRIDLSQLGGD
In words: cell_activity; +++; HEK293T; PAM not stated. In outline: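 BFP-to-GFP conversion via reverse transcriptase fusion with each Cas endonuclease plus template RNA: 200 ng of each plasmid nucleofected into 250,000 BFP-expressing HEK293T cells (program DS-150). Percent GFP+ cells by flow cytometry at day 4 measured editing.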

Some results are limits rather than exact numbers.

B1: BFP-to-GFP template RNA ; BFP reporter protospacer (ssRNA ; dsDNA)
RNA: GCCGAAGCACUGCACGCCGUGUUUUAGAGCUAGAAAUAGCAAGUUAAAAUAAGGCUAGUCCGUUAUCAACUUGAAAAAGUGGCACCGAGUCGGUGCACCCUGACGUACGGCGUGCAGUGCUU
DNA 1: GCCGAAGCACTGCACGCCGT
DNA 2: ACGGCGTGCAGTGCTTCGGC
For the molecule B1, the activity is ≥ 100 % of reference.
